Test results as given in PMC4942575, “Plastid-nucleus communication involves calcium-modulated MAPK signalling” (Nature Communications, 2016).

Tests used:
GST-MPK3 = target: T1, GST-MPK3 (Arabidopsis, UniProt Q39023 1-370); test: pull-down; GST or GST-MPK3/MPK6 immobilised on glutathione beads, 4 μg His-tagged ABI4, 4 °C for 4 h; washed with 50 mM Tris-HCl pH 7.4, 100 mM NaCl, 1 mM EDTA, 0.5% Nonidet P-40; anti-His immunoblot; conditions: both partners purified
T1 construct: MPK3, Arabidopsis, full length, in PGEX5X-1; also called GST-tagged MPK3
T1 sequence (looked up): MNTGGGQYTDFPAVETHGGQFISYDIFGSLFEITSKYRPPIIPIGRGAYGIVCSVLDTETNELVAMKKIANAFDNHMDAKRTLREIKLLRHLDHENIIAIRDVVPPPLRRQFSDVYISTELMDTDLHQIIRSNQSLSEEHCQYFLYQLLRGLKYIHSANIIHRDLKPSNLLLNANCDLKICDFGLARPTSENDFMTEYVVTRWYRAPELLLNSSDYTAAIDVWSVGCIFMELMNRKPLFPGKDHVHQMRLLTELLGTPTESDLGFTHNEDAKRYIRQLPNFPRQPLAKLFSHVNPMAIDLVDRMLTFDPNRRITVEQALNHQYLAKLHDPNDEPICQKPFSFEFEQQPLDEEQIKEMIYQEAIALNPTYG

GST-MPK6 = target: T2, GST-MPK6 (Arabidopsis, UniProt Q39026 1-395); test: as above; conditions: both partners purified
T2 construct: MPK6, Arabidopsis, full length, in PGEX5X-1; also called GST-tagged MPK6
T2 sequence (Q39026 whole entry): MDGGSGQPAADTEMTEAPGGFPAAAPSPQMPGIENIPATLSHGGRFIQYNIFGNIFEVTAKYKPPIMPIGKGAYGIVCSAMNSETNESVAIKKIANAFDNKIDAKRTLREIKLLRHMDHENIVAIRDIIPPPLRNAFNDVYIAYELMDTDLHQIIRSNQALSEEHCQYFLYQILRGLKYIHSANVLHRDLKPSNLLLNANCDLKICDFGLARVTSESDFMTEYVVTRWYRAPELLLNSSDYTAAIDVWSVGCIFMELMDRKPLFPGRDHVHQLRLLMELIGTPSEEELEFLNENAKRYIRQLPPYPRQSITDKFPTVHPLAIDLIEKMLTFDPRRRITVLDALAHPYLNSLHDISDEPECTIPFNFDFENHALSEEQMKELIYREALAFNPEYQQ

binding result (GST-MPK3): binds
binding result (GST-MPK6): binds
B1: His-tagged ABI4 (natural protein)
chain: not shown
notes: ABI4, Arabidopsis; the ABI4 cDNA was inserted into the pCold vector; The pull-down methods name only 'recombinant His-tagged ABI4 protein'; also called recombinant ABI4
